# Measured values reported in the nanobody polyreactivity screen of Harvey et al. (2022).
# Assay: yeast display, Sf9 membrane polyspecificity reagent, FACS + sequencing; frameworks hold sequencing errors
# Outline: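 Synthetic nanobody libraries on Saccharomyces cerevisiae BJ5465 were galactose-induced for 36–48 hours, stained 1 hour at 4 °C with 10% biotinylated, detergent-solubilized Sf9 membrane reagent and enriched on streptavidin microbeads. FACS then separated cells into low and high (top ~1%) gates by anti-HA (expression) and streptavidin (reagent binding) fluorescence. Genes were colony-PCR amplified, MiSeq 2 × 250 sequenced and CDR-length filtered. A clone's polyreactivity label is that of its gate of origin.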
row,Sequence,polyreactivity (PSR sort gate)
1,QVQLVESGGGLVQAGGSLRLSCAASGLIFRPYAMGWSRQAPGKERELVAAITSGGSTDYADSVKGRFTISRDNAKNTVYLQMNSLKPEDTAVYYCNADIYPHDGYPWQGDYDYWGQGTQVTVSS,low polyreactivity
2,QVQLVESGGGLVQAGGSLRLSCAASGLIFRPYAMGWYRQAPGKERELVAAITSGGSTDYADSVKGRFTISRDNAKNTVYLQMNSLKPQDTAVYYCNADTIPDGEDRYVYWGQGTQVTVSS,low polyreactivity
3,QVQLVESGGGLVQAGGSLRLSCAASGLIFRPYTMGWYRPAPGKERELVATISGSGASTNYADSVKGRFTISRDNAKNTVYLQMNSLKPEDTAVYYCKGRSYSRMYYWGQGTQVTVSS,high polyreactivity
4,QVQLVESGGGLVQAGGSLRLSCAASGLIFRRYVLGWYRQAPGKEWELVAAISATGSRTYYADSVKGRFTISRDNAKNTVYLQRNSLKPEDNAVYYCAAYRGPRIYRYDYWGQVTQVTVSS,high polyreactivity
5,QVQLVESGGGLVQAGGSLRLSCAASGLIFRTYAMGWYRQAPGKERELVAAISSSGGSTYYADSVKGRFTISRDNAKNTVYLQMNSLKPEDTAVYYCNVGSRRRRYLDRYEYWGQGTQVTVSS,high polyreactivity
6,QVQLVESGGGLVQAGGSLRLSCAASGLIFRTYTMGWNRQAPGKERELVAVISTSGGTTYYADSVKGRFTISRDNAKNTVYLQMNSLKPEDTAVYYCAKRYYWKYAEYDYWGQGSQVTVSS,high polyreactivity
7,QVQLVESGGGLVQAGGSLRLSCAASGLIFRWYAMGWYRQAPGKEREMVAAISRRGGTTNYADSVKGRFTISRDNAKNTVYLQMTSLKPEDTAVYYCAADYQSVGGAEYDYWGQGTQVTVSS,high polyreactivity
8,QVQLVESGGGLVQAGGSLRLSCAASGLIFRWYAMGWYRQAPGKEWELVAAISRRGGTTNYADSVKGRFTISRDNAKKTVYLQMNSLKPEDTAVYYCAADYQSVGGAEYDYWGQGTQVTVSS,high polyreactivity
9,QVQLVESGGGLVQAGGSLRLSCAASGLIFRWYDMGWYRQAPGKDRELVAAITRGGGTNYADSVKGRFTLSRDNAKNTVYLQMNSLKPEDTAVYYCAARLIKYGRAWTFGGYDYWGQGTQVSVSS,high polyreactivity
10,QVQLVESGGGLVQAGGSLRLSCAASGLIFRYYAMGWYRQAPGKERELVAAIDGSDGITYYADSVKGRFTISRDNAKNTVYLQMNSLKPEDTEVYYCDAAFYYWGQGTQVTVSS,low polyreactivity
11,QVQLVESGGGLVQAGGSLRLSCAASGLIFRYYAMGWYRQAPGKERELVATIRGGGSTYYADSVKGRFTISRDNAKNTVYLQMNSLKPEDTAVYYCAADPYSYGARGSRGDYWGQGTQVTVSS,low polyreactivity
12,QVQLVESGGGLVQAGGSLRLSCAASGLIFRYYAMGWYRQAPGKESELVAAITSGGGTYYADSVKGRFTISRDNAKNTVYLQMNSLKPEDTAFYYCAVGSYGHPKHRRNLDYWGQGTQVTVSS,low polyreactivity
13,QVQLVESGGGLVQAGGSLRLSCAASGLIFSDYAMGWYRQAPGKERELVAAISGIGTRTSYADSVKGRFTISRDNAKNTVYLQMNSLKPEDTAVYYCAARYYGFPSTLKYDYWGQGTQVTVSS,high polyreactivity
14,QVQLVESGGGLVQAGGSLRLSCAASGLIFSEYAMGRSRQAPWKERELVAAIRSDGGSTYYADSVKGRFTISRDNAKNSVYLQMNSLKPEDTAVYYCNAPYRRSAKFRRYGYDYWGQGTQVTVSS,high polyreactivity
15,QVQLVESGGGLVQAGGSLRLSCAASGLIFSGYAMGWYRQAPGKERELVAAINSGTSTTYADSVKGRFTISRDNAKNTVYLQMNSLKPEDTAVYYCNTPHNQDKPYPGYDYWGQGTQVTVSS,low polyreactivity
16,QVQLVESGGGLVQAGGSLRLSCAASGLIFSGYAMGWYRQAPGKERELVAAISRGGGRTSYADSVKGRFTISRDNAKNTVYLQMNSLKPEDTAVYYCAKDPRYLRYDHWGQGTQVTVSS,high polyreactivity
17,QVQLVESGGGLVQAGGSLRLSCAASGLIFSHYTMGWYRQAPGKERELVAAITSSGGSTYYADSVKGRFTISRDNAKNTVYLQMNSLKPEDTAVYYCNVDYYEPSWYDDDYWGQGTQVTVSS,low polyreactivity
18,QVQLVESGGGLVQAGGSLRLSCAASGLIFSKNVMGWYRQAPGKERELVAAISQRGGSTYYADSVKGRFTISRDNAKNTVYLQMNSLKPEDTAVYYCAARSRRRDDYWGQGTQVTVSS,high polyreactivity
19,QVQLVESGGGLVQAGGSLRLSCAASGLIFSNNAMGWYRQAPGKERELVAAITSSGSRTYYADSVKGRFTISRDNAKNTVYLEMNRLKPEDTAVYYCAAYEVPYQRRYGYWGQGTQVTVSS,high polyreactivity
20,QVQLVESGGGLVQAGGSLRLSCAASGLIFSQYAMGWYRQAPGKEREFVARISSSGGSTYYADSVKGRFTISRDNAKNTVYLQMNSLKPEDTAVYYCAAVGGRNIRVWFRTKYDYWGQGTQVTVSS,low polyreactivity
21,QVQLVESGGGLVQAGGSLRLSCAASGLIFSRYAMGWYRQAPGKERELVAAISSSGGTTYYADSVKGRFTISRDNAKNTVYLQMNSLKPEDTAVYYCAAGVAWRFYSWGQGTQVTVSS,high polyreactivity

row,Sequence,polyreactivity (PSR sort gate)
1,QVQLVESGGGLVQAGGSLRLSCAASGLIFSSNAMGWARQAPGKEREWVAAITSGGSTNYADSVKGRFTISRDNAHNTVYLQMNSLKPEDTAVYYCNAVSPHYFGGSYDYWGQGTQVTVSS,low polyreactivity
2,QVQLVESGGGLVQAGGSLRLSCAASGLIFSSNAMGWYRQAPGKERELVATISWSGGSTYYADSVKGRFTISRDNAKNTVYLQMNSLKPEDTAVYYCCWSALNGYDYWGQGTQVTVSS,high polyreactivity
3,QVQLVESGGGLVQAGGSLRLSCAASGLIFSSYAMGWYSQAPGKERELVAAITSGGNTNYADSVKGRFTISRDNAKNTVYLHMNSLKPEDTAVYYCSAVWWTYVAAPGYDYWGQGTQVTVSS,low polyreactivity
4,QVQLVESGGGLVQAGGSLRLSCAASGLIFSSYPKGWYRQAPGKEWVLVAAITRTGGDTYYADSVKGRFTISRDNAQNSFYLQMNSLKPEDTAVYYCSSSGPQYYSRNFDYWGQGTQVTVSS,low polyreactivity
5,QVQLVESGGGLVQAGGSLRLSCAASGLIFSTYDMGWYRQAPGKDRELVAAISTGGSTYCADSVKGRFTMSRDNAKYTVYLQMNSLKPEDTAVYYCAAGYTYHSWPLYYWDYNYWGQGTQVTVSS,low polyreactivity
6,QVQLVESGGGLVQAGGSLRLSCAASGLIFSVYAMGWYRQAPGKERELVARISINGGSTYYADSVKGRFTISRDNAKNTVYLQMNSLKPEDTAVYYCNAVRITHYVRYYYWGQGTQVTVSS,high polyreactivity
7,QVQLVESGGGLVQAGGSLRLSCAASGLIFSYNAMGWYRQAPGKERELVAAISANGGRTYYADSVKGRFTISRDNAKNTVSLQMNSLKPEDTAVYYCAAQGSRKLFYTDSGYWGQGTQVSVSS,high polyreactivity
8,QVQLVESGGGLVQAGGSLRLSCAASGLIFTGYAMGWYRQAPGKERELVAAITSGGGTNYADSVKGRFTISRDNAKNTVYLQMNSLKPEDTAVYYCAVDFGHYYLYSITSYLWYWDGYDYWGQGTQVTVSS,low polyreactivity
9,QVQLVESGGGLVQAGGSLRLSCAASGLIFTKAMGWYRQAPGKEREFVAAINSSGGSTYADSVKGRFTISRDNAKNTVYLQMNSLKPEDTAVYYCAARVNYLYEYWGQGTQVTVSS,low polyreactivity
10,QVQLVESGGGLVQAGGSLRLSCAASGLIFTPYAMGWYRQAPGKERELVAAINYGGSRTYYADSVKGRFTISRDNAKNTVYLQMNSLKPEDTAVYYCNVVKRSFRYDYWGEGTQVTVSS,high polyreactivity
11,QVQLVESGGGLVQAGGSLRLSCAASGLIFTSYAMGWYRQAPGKERELVAAISYSGGTTIYADSVKGRFTISRDYAKNTVYLQMNSVKPEDTAVYYCAADSLSTTHDTLGYDRDDYWGQGSQVTVSS,low polyreactivity
12,QVQLVESGGGLVQAGGSLRLSCAASGLIFTYYAMGWYRQAPGKERELVAAINWSGGSTYYADSVKGRFTISRDNAKNTVYLQMNSLKPEDTAVYYCAAAYANYRFYYWGQGTQVTVSS,high polyreactivity
13,QVQLVESGGGLVQAGGSLRLSCAASGLIFVGYAMGWYRQAPGTERELVAAITSGGSTNYADSVKGRFTISRDNAKNTVYLQMNSLKPEDTAVYYCAASDAIPLRYDYWGQGTQVTVSS,low polyreactivity
14,QVQLVESGGGLVQAGGSLRLSCAASGLIFVHYAMGWYRQAPGKERELVAAISAGGGSTYYADSVKGRFTISRDNAKNTVYLQMNSLKPEDTAVYYCNARVVNYFRPRTGAREYDYWGQGTQVTVSS,high polyreactivity
15,QVQLVESGGGLVQAGGSLRLSCAASGLIFVINAMGWYRQAPGKERELVATISSGVSTNYADSVKGRFTISRDNAKNTVYLQMNSLKPEDTAVYYCNAPEITYYYAPWETKIYDYWGQGTQVTVSS,low polyreactivity
16,QVQLVESGGGLVQAGGSLRLSCAASGLIFVSYAMGWYRQAPGKERELVASITDSDSSTYYADSVKGRFTISRDNAKNTVYLQMNSLKPEDTAVYYCATGGRTEIWYPTLDYWGQGTQVTVSS,low polyreactivity
17,QVQLVESGGGLVQAGGSLRLSCAASGLIFVTNAMGWYRQAPGKERELVAAITRSGGSTYYADSVKGRFTISRDNAKITVYLQMNSLKPEDTAVYYCATGFHYAYGYCGQGTQVTVSS,low polyreactivity
18,QVQLVESGGGLVQAGGSLRLSCAASGLIFVVYVMGWYRQAPGKERQLVAAMYGSGDSTYYADSVKGRFTISRDNAKNSVSLKMNSLKPEDTAVYSCAAKAFISDGYWYGYWGQGTQVTVSS,high polyreactivity
19,QVQLVESGGGLVQAGGSLRLSCAASGLIFWGYTMGWYRPAPGKERELVASITTSGSTYYADSVKGRFTISRDNAKNTVYLQMNSLKPEDTAVYYCAVDNYYTPWYPYLGYDSWGQGTQVTVSS,low polyreactivity
20,QVQLVESGGGLVQAGGSLRLSCAASGLIFWRYDMGWYRQAPGKERELVAVITSGGNTYYADAVKGRFRISRDNAKNTVYLQMNSLKPEDTAVYYCNADTWRDDYDYWGQGTQVTVAS,low polyreactivity
